{
  "source": "paper PMC6957213",
  "key": {"[1]": {"system": "T1, GdhR (Neisseria gonorrhoeae FA19), ORF:8165ddaf", "T1 sequence": "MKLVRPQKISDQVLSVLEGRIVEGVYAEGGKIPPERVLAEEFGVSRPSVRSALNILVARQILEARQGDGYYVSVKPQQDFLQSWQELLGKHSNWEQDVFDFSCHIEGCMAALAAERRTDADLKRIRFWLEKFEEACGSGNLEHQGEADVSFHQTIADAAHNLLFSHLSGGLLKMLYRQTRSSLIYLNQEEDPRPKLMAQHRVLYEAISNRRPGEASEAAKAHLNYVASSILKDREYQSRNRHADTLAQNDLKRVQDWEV", "assay": "competition", "conditions": "EMSA: 12 fmol DIG-DNA in 20 uL, 20 mM Hepes pH 7.6, 1 mM EDTA, 10 mM (NH4)2SO4, 1 mM DTT, 0.2% Tween-20, 30 mM KCl, 1.25 ng/uL calf thymus DNA, 25 min, 30 C"}, "[2]": {"system": "T1, GdhR (Neisseria gonorrhoeae FA19), ORF:8165ddaf", "assay": "EMSA", "conditions": "EMSA: 12 fmol DIG-DNA in 20 uL, 20 mM Hepes pH 7.6, 1 mM EDTA, 10 mM (NH4)2SO4, 1 mM DTT, 0.2% Tween-20, 30 mM KCl, 1.25 ng/uL calf thymus DNA, 25 min, 30 C"}},
  "data": [
    {"sequence": "CGTAGGGTGCGAGCGTTAATCGGAATTACTGGGCGTAAAGCGGGCGCAGACGGTTACTTAAGCAGGATGTGAAATCCCCGGGCTCAACCCGGGAACTGCGTTCTGAACTGGGTGACTCGAGTGTGTCAGAGGGAGGTGGAATTCCACGTGTAGCAGTGAAATGCGTAGAGATGTGGAGGAATACCGATGG (double strand) [16S rRNA gene fragment]", "values": [
      {"measurement": "binding", "setting": "[1]", "result": "no binding"}
    ]},
    {"sequence": "GTGGACGGGGACGGCGCGGTATTCGTGCCGCCGGAAGAATGCTGAAAATGCCGTCTGAAGCCTTTCGGGCGGCTTTTTCTACACGCCCCTTTCCCACACTCCCTCCGCCGCATCATCACCATCCTTAACCCGCATTAATAGCCATTATCGATAAAATGCTTGACCGATTACATAAGATTACGTAAAGTGTGCAAACGCATAATAATTGGTCTTACCAATTTATCTTTTAACCAAAATATCGGGTGTGCGGGATTTGAACGTCTTTCCAAACCTCGACGCGCCTTATGATGC (double strand) [lctP promoter, unlabeled competitor]", "values": [
      {"measurement": "binding", "setting": "[1]", "result": "binds"}
    ]},
    {"sequence": "GTGGACGGGGACGGCGCGGTATTCGTGCCGCCGGAAGAATGCTGAAAATGCCGTCTGAAGCCTTTCGGGCGGCTTTTTCTACACGCCCCTTTCCCACACTCCCTCCGCCGCATCATCACCATCCTTAACCCGCATTAATAGCCATTATCGATAAAATGCTTGACCGATTACATAAGATTACGTAAAGTGTGCAAACGCATATCTTTTAACCAAAATATCGGGTGTGCGGGATTTGAACGTCTTTCCAAACCTCGACGCGCCTTATGATGC (double strand) [lctPΔFadR EMSA probe]", "values": [
      {"measurement": "binding", "setting": "[2]", "result": "binds more weakly"}
    ]}
  ]
}
